Measured values published in patent USRE50631 (VELOSBIO, dated 2025).

B1: ADC-A (antibody, human IgG1, kappa, V domains shown)
VH: QVQLQESGPGLVKPSQTLSLTCTVSGYAFTAYNIHWVRQAPGQGLEWMGSFDPYDGGSSYNQKFKDRLTISKDTSKNQVVLTMTNMDPVDTATYYCARGWYYFDYWGHGTLVTVSS
VL: DIVMTQTPLSLPVTPGEPASISCRASKSISKYLAWYQQKPGQAPRLLIYSGSTLQSGIPPRFSGSGYGTDFTLTINNIESEDAAYYFCQQHDESPYTFGEGTKVEIKR
modifications: MC-VC-PAB-MMAE bonded via cysteine residues of the antibody (chain and positions not stated); MC-VC-PAB-MMAE bonded via cysteine residues of the antibody (chain and positions not stated); DAR 3.89 to 5.09
notes: Antibody-drug conjugate of Ab1; also called Ab1-MC-VC-PAB-MMAE
B2: ADC-R (antibody, human IgG1, kappa, V domains shown)
VH: B1 VH
VL: B1 VL
modifications: deglycosylated with PNGase F; azido-PEG3-amine put on glutamine residues by microbial transglutaminase, then DBCO-PEG4-VC-PAB-DMEA-PNU-159682 via a triazole (chain and positions not stated); DAR 2.1
notes: also called Ab1-DBCO-PEG4-VC-PAB-DMEA-PNU-159682

Tests used:
[1] = target: T1, human receptor tyrosine kinase like orphan receptor 1 (ROR1) (human, UniProt Q01973 30-937); test: cell-based or functional assay
[2] = target: T1, human receptor tyrosine kinase like …; test: flow cytometry on Jeko-1 cells
[3] = target: T1, human receptor tyrosine kinase like …; test: flow cytometry on MDA-MB-231 cells
[4] = target: T1, human receptor tyrosine kinase like …; test: flow cytometry on Jeko-1 cells (FIG. 3A)
[5] = target: T1, human receptor tyrosine kinase like …; test: flow cytometry on Jeko-1 cells (FIG. 3B)
[6] = target: T1, human receptor tyrosine kinase like …; test: binding to Jeko-1 cells; column 'ADC-A Binding KD (nM)', method not described
[7] = target: T1, human receptor tyrosine kinase like …; test: binding to MDA-MB-231 cells; column 'ADC-A Binding KD (nM)', method not described
[8] = target: T1, human receptor tyrosine kinase like …; test: binding to Jeko cells; column 'ADC-R Binding KD (nM)', method not described

T1 sequence (Q01973 30-937): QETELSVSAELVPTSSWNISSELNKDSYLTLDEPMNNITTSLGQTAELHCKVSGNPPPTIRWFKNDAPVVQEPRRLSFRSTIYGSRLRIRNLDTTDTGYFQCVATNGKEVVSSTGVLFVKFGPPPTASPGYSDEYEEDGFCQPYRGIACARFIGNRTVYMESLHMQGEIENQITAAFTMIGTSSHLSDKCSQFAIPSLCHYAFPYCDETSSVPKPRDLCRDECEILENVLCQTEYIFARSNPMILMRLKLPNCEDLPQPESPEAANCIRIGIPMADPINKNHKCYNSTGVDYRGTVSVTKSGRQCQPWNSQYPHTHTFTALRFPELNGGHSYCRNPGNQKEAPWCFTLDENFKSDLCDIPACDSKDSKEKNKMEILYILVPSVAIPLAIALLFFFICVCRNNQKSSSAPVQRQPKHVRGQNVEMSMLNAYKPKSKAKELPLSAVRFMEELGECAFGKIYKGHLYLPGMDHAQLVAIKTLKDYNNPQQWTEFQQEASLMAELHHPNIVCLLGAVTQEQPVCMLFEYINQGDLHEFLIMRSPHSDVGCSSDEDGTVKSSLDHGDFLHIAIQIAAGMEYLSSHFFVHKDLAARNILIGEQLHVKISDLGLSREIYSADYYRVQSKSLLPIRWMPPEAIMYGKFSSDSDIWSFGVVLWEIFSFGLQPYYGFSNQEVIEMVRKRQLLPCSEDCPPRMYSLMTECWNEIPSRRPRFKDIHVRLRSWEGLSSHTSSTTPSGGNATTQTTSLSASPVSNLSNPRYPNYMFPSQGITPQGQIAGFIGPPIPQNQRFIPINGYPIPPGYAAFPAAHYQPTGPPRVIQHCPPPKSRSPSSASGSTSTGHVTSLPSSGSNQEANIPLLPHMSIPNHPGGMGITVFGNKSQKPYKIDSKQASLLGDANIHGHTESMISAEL

Binder	IC50, cell viability (CellTiter-Glo, 72 h), A2008 cells [1] [nM]	IC50, cell viability (CellTiter-Glo, 72 h), Bt549 cells [1] [nM]	IC50, cell viability (CellTiter-Glo, 72 h), DOHH2 cells [1] [nM]	IC50, cell viability (CellTiter-Glo, 72 h), HBL-1 cells [1] [nM]	IC50, cell viability (CellTiter-Glo, 72 h), HCC1187 cells [1] [nM]	IC50, cell viability (CellTiter-Glo, 72 h), JHOM1 cells [1] [nM]	IC50, cell viability (CellTiter-Glo, 72 h), MDA-MB-468 cells [1] [nM]	IC50, cell viability (CellTiter-Glo, 72 h), SKOvr3 cells [1] [nM]	IC50, cell viability (CellTiter-Glo, 72 h), TMD-8 cells [1] [nM]	IC50, cell viability (CellTiter-Glo, 72 h), TOV112D cells [1] [nM]	EC50 [2] [µg/mL]	EC50 [3] [µg/mL]	EC50 [4] [µg/mL]	EC50 [5] [µg/mL]	Kd [6] [nM]	Kd [7] [nM]	Kd [8] [nM]
B1	125	13.5	129	118	6.8	15.6	23.5	62.6	122	62.4	0.017	0.0485	0.0216	0.0221	0.1	0.32	–
B2	–	–	–	–	–	–	–	–	–	–	–	–	–	–	–	–	0.25
